In the supplement of paper PMC9170038:

Tested on: MS2 coat protein
Assay: apparent KD of MS2 coat protein; designed switch direction (-1 OFF switch, 1 ON switch): 1; higher = weaker reporter binding
Summary of the method: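 The buffer was Tris-HCl pH 7.5 with KCl, MgCl2, BSA, DTT, tRNA and Tween-20. In it, SNAP-549-labelled MS2 coat protein was titrated in doubling steps from 0.7 or 1.5 nM to 3 µM over chip-bound RNA switches transcribed by stalled E. coli RNA polymerase on Illumina chips. Apparent KD is the per-design median over clusters of curve fits to normalised fluorescence.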

[1] = input ligand: microRNA oligo, concentration not stated
[2] = Eterna round: R95, input ligand: FMN 200 uM
[3] = Eterna round: R95, input ligand: microRNA oligo, concentration not stated
[4] = Eterna round: R95, input ligand: none

Sequence | apparent KD of MS2 coat protein (input ligand: FMN 200 uM) [nM] | apparent KD of MS2 coat protein [1] [nM] | apparent KD of MS2 coat protein (input ligand: none) [nM] | apparent KD of MS2 coat protein [2] [nM] | apparent KD of MS2 coat protein [3] [nM] | apparent KD of MS2 coat protein [4] [nM]
UAGUACAAGCUUUUUGCUUGUCUUAUUUAACAUGAGGAUCACCCAUGUAAGUUGAAAGUUAGAGAGUGCACCUUCAA [JR_SHM208A_Sub052] (Eterna round: R96, puzzle: Sensor for hsa-mir-208a) | 17.2 | 17 | 21.6 |  |  | 
AGCUAUCGAAAACGAUAGCAAAAGCAUGUACAUGAGGAUCACCCAUGUCAUGUACAAGCUUUUUGCUCGUCUUAAAA [JL zipper 23] (Eterna round: R96, puzzle: Sensor for hsa-mir-208a) | 919 | 14.3 | 1000 |  |  | 
UGGUUGGAGAGAGAGGAUAUCCAAUUUUCAACAUGAGGAUCACCCAUGUAGAACGUAGGUAAUUGGGAGAAGGCUCAAGAGACAU [salish99_ss2_r3_100] (puzzle: Same State 2) |  |  |  | 26.9 | 14.5 | 23.5
CAGCGCUGUCGAGAGGAUAUGCGGUGAUGGACAUGAGGAUCACCCAUGUUAGCGGUAGCAUUACGGUAGAAGGCUCUACAGCUGC [Soteed - 3] (puzzle: Same State 2) |  |  |  |  | 24.7 | 
UGUUGUUAACUAGGAUAUGGUCACAUGAGGAUCACCCAUGUAAUGUCGAUGCUAUGUGGAUUUGAUCAGAAGGAGUGGUUAACA [SameState NG2 #99] (Eterna round: R96, puzzle: Same State NG 2) | 66.4 | 58.8 | 58.4 |  |  | 
GGUGGGUUACUACCAACACAUGAGGAUCACCCAUGUUUUGGGAAGGAUAUGGUACCUAUUUGGUACCAGAAGGUCCCGUUGGUG [salish99_SSNG3_r04_705] (Eterna round: R96, puzzle: Same State NG 3) | 28.7 | 25.8 | 36 |  |  | 
CUUCGCGCCGCAGGAUAUGCCGACCCGUGUUGAGCAGAAGGGCGAGACAUGAGGAUCACCCAUGUCUAAAGAGCGCAUCAAUAA [Esedlaedbi] (Eterna round: R96, puzzle: Same State NG 1) | 23.1 | 18.9 | 45.9 |  |  | 
UUUAGCGUUACAGGAUAUGGUGAGGAUUACCCACUAGAAGGGUAAACAUGUGCGUCGGACAUGAGGAUCACCCAUGUAGGGCGU (Eterna round: R96, puzzle: Same State NG 1) | 28.4 | 21.6 | 32.4 |  |  | 
GUGGAGGGUUGAGGAUAUUGAAUACAUAUGUUUAACAUGAGGAUCACCCAUGUGGGUUGCGGUAUCGAGAAGGUAAAUUGCUGG [salish99_SSNG2_r04_037] (Eterna round: R96, puzzle: Same State NG 2) |  | 72.1 |  |  |  | 
UGGCUCAGACGAGGAUAUGAUCAUGGCGCUUCGGCGCAUACAUGAGGAUCACCCAUGUAAAGUGAUCAGAAGGUGUCUGAGCCA [SSNG2/7-B2] (Eterna round: R96, puzzle: Same State NG 2) | 13 | 11.6 | 14.5 |  |  | 
UACAAUCUAUCUGAGGAUAUCAUGAAAAAAACAUGAGGAUCACCCAUGUGCAGGAAAACUGCAUAUGAGAAGGCAGAUAGAUUGA [salish99_SS2_r3_005] (Eterna round: R96, puzzle: Same State 2) |  | 517 |  |  |  | 
AUUAAACAUGAGGAUCACCCAUGUCAACAAAGUCGAGGAUAUGGGCAUAUUAUAUAAUAACCAGAAGGCGAAUAAU [salish99_ss1_r3_084] (puzzle: Same State 1) |  |  |  | 11.1 | 12.8 | 13.8
GCGGAGAGGUAAGGAUAUCCAUGGCAUAGACAUGAGGAUCACCCAUGUAGGAGACGAAUUAGGAGGGAGAAGGUACCGGGACGC [AK SSNG2-V2-19.1] (Eterna round: R96, puzzle: Same State NG 2) | 120 | 81.2 | 179 |  |  | 
CGCCAGAGAGCAGGAUAUGGGCCACGGCCUAAGGGCUGUGAACUCACAUGAGGAUCACCCAUGUCCCAGAAGGGCUCCUGGCGG [Veatzain] (Eterna round: R96, puzzle: Same State NG 2) | 62.4 | 1240 | 2110 |  |  | 
ACAUGAGGAUCACCCAUGUCGGAUAAGGAAACGACCACGUGGGAGGAUAUUGUAACGCGUCUGUACGAGAAGGCCCAUUCCAGU [Eternabot solution 42] (Eterna round: R96, puzzle: Same State NG 3) | 29.2 | 66.8 | 80.8 |  |  | 
CACAAUCUAUCUGAGGAUAUCAUGAAAAAAACAUGAGGAUCACCCAUGUGCAGGAAAACUGCAUAUGAGAAGGCAGAUAGAUUGG [salish99_SS2_r3_014] (Eterna round: R96, puzzle: Same State 2) |  | 504 |  |  |  | 

Sequence | apparent KD of MS2 coat protein (input ligand: FMN 200 uM) [nM] | apparent KD of MS2 coat protein [1] [nM] | apparent KD of MS2 coat protein (input ligand: none) [nM] | apparent KD of MS2 coat protein [2] [nM] | apparent KD of MS2 coat protein [3] [nM] | apparent KD of MS2 coat protein [4] [nM]
GCUAGGAAUAAAGCCAACAUGAGGAUCACCCAUGUAUGUUGGUAGGAUAUCGUUUGCAAAGCAAACGAGAAGGGCUAACCUAGC [Mat - Same State NG 3 - JL Mod - D68] (Eterna round: R96, puzzle: Same State NG 3) | 85.8 | 62.7 | 71.1 |  |  | 
GAGGAACAUGAGGAUCACCCAUGUAAAGGGUUUAAAGGAUAUUAUUGGGAGAAAGUAGGGUAAGAAGGUUGAUUGG [JR_SS1_Sub087] (puzzle: Same State 1) |  |  |  | 120 | 127 | 168
CUGCUACAUGAGGAUCACCCAUGUUGGAGUAAUGCAGGAUAUGUGGGACCAGAAGAUAAAACAGAAGGGCAAGGAG [JR_SS!_Sub007] (puzzle: Same State 1) |  |  |  | 18 | 14.4 | 28.8
AAAAAACAUGAGGAUCACCCAUGUAAAAAUAUGGGAGGAUAUUCAAACACGAAAGUGAAAGAAGAAGGCCUAAAAA [SS! MT 18] (Eterna round: R96, puzzle: Same State 1) | 17.5 | 56.7 | 81.3 |  |  | 
UCAAGCGUUUGGCUCGUUUUAUGUUUUGUACAUGAGGAUCACCCAUGUUUUGUACGAUCCAGUUAGAUGGUAUUUUG [JR_SHM208A_Sub039] (puzzle: Sensor for hsa-mir-208a) |  |  |  | 39.6 | 93 | 56.8
ACAUGAGACUCAGGAUAUCUUGUACCUACAUGUGACAUGAGGAUCACCCAUGUGGUAAGUAUGACAGAGAAGGGAGAGAUAUGU [Equivalance 87 - Jieux - Same State NG 2] (Eterna round: R96, puzzle: Same State NG 2) | 26.7 | 47.2 | 64.1 |  |  | 
GGAGCCGGCACCGAGGAUAUUCAUAUUAAAACAUGAGGAUCACCCAUGUAGAGCGAAAGCUCUUGGGAGAAGGCGGAUCGGCUCG [Xeonanis - 28] (puzzle: Same State 2) |  |  |  | 34.1 | 672 | 1060
GUAAGUUCGAUGCUCGUCUCUCCGUACAAACAUGAGGAUCACCCAUGUGAUCGGGCAGUAGCCCGAUCAGUAUGGCC [Xearlaxe] (puzzle: Sensor for hsa-mir-208a) |  |  |  | 44 | 22.6 | 47
GGCCUGAGUGAAGGAUAUGCUACCGUUUCGGUAGCAGAAGGUCAUCACAUGAGGAUGACCCAUGUUUACGCGAACACGCGCGCC (Eterna round: R96, puzzle: Same State NG 1) | 45.9 | 27.2 | 28.2 |  |  | 
GGCUAUCGCAUUCGAUAGCUUAAGCAUGUACAUGAGGAUCACCCAUGUCAUGUACAGGCUUUUUGCUCGUACUUAUA (puzzle: Sensor for hsa-mir-208a) |  |  |  | 286 | 14.9 | 366
AAAUGUAGGAAACAACAGCAAGAGCAUGUACAUGAGGAUCACCCAUGUCAUGUACAAGCUUUUUGCUGGUCUUAUUA [ak 2 mod of one Eli's designs..] (puzzle: Sensor for hsa-mir-208a) |  |  |  | 23.7 | 31 | 19.6
GUGGUGUAGAUACAGGAUAUGUUGCUCGUAACAUGAGGAUCACCCAUGUAUCUAUGAGAAUAAAUGCAGAAGGGUGCACACCACU [Mat - Same State 2 - Mod of UCT - D74] (puzzle: Same State 2) |  |  |  | 24.7 | 467 | 639
AGUCCAGCGAAAGCUGGACAAAAGCAUGUACAUGAGGAUCACCCAUGUUCAUGUACAAGCUUUUUGUUCGUCUUAAA [JL mod - D95 - 14] (puzzle: Sensor for hsa-mir-208a) |  |  |  | 314 | 13.4 | 601
GCCGCGUUUAACGCCUACAUGAGGAUCACCCAUGUAUGUAGGCAGGAUAUCGUUUGCUUUGCAAACGAGAAGGGCUGUAGUGGC [salish99_SSNG3_R04_006] (Eterna round: R96, puzzle: Same State NG 3) | 25.9 | 73.9 | 80.9 |  |  | 
AACCGGGAGAAGCAGGAUAUUGCCUCUUCAACAUGAGGAUCACCCAUGUAAGUAAAUUGACGAUACAAGAAGGGCUGCUCCUUAC [Raatgees] (Eterna round: R96, puzzle: Same State 2) |  | 79.1 |  |  |  | 
AUAAGGCAAGCUUUUUUCUCGUAGUGUAAACAUGAGGAUCACCCAUGUGCCCACCCUGGAUCUUUGGAUCGCAGAAC [Sobiisarre] (puzzle: Sensor for hsa-mir-208a) |  |  |  | 20.3 | 15.2 | 22.7
